Columns and labels:
Experiment in all cases: Southwestern blot; no change vs WT; EMSA: LightShift kit binding buffer, 20 min, room temperature, 5% native PAGE; Southwestern: 2 ug protein on nitrocellulose renatured in TNED buffer, 20 pmol biotin DNA, 12 h, room temperature; SPR: Biacore, NTA chip (~100 RU protein), buffer not given
Settings in all cases: protein: recombinant; tags: His (pET-30a); label: 5'-C6-biotin (both oligos by primer name); blunt
rMbovP475-265NQ266 = target: T1, rMbovP475-265NQ266 (Mycoplasma bovis HB0801, UniProt A0A454AQS7 1-368, N265A;Q266A)
T1 sequence: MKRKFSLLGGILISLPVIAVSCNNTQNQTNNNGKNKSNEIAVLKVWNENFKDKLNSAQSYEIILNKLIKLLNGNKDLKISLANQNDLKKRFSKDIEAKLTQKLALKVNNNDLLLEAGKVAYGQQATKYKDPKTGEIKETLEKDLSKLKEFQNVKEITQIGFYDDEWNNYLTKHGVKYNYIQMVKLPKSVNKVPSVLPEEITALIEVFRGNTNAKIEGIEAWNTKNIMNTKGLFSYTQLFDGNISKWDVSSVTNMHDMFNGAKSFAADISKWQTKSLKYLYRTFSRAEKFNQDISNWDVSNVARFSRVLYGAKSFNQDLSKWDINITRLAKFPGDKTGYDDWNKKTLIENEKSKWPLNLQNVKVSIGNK

MbovP475∆DB3 = target: T2, MbovP475∆DB3 (Mycoplasma bovis HB0801, UniProt A0A454AQS7 1-338)
T2 sequence: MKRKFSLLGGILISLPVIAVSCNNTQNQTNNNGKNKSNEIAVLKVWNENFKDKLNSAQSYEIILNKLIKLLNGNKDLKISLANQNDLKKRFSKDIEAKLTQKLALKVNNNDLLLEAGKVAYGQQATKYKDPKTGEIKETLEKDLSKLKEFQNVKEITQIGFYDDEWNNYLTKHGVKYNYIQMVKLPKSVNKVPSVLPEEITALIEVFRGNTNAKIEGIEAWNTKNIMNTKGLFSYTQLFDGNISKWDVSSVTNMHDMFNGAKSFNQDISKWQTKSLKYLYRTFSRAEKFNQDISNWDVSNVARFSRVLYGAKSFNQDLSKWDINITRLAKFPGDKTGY

MbovP475∆DB2 = target: T3, MbovP475∆DB2 (Mycoplasma bovis HB0801, UniProt A0A454AQS7 1-298+333-368, internal_change)
T3 sequence: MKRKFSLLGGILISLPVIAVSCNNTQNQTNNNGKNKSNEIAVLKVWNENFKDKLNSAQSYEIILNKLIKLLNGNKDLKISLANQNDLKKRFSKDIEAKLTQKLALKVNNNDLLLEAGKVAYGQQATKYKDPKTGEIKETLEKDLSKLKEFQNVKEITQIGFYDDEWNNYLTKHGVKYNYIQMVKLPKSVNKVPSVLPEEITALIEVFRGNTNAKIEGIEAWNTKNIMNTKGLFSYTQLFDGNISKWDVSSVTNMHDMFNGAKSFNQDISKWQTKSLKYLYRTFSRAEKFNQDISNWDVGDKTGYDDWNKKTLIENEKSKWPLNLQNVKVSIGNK

Measured: binding result

B1: MCF2L2 promoter (+53 to +112) (dsDNA)
DNA 1: CAACTAACACTTTACGGGAGTGGGCACATCATTCCTGAATAAGGACACGCGCGTGCGCAC
DNA 2: GTGCGCACGCGCGTGTCCTTATTCAGGAATGATGTGCCCACTCCCGTAAAGTGTTAGTTG
binds: all assays above

B2: CRYAB promoter (+108 to +167) (dsDNA)
DNA 1: TCTCTTCCCAGCTTCTACTTCCCTGAGCCCCTTCTACCTTCGGCCGCCCTCATTTCTGCG
DNA 2: CGCAGAAATGAGGGCGGCCGAAGGTAGAAGGGGCTCAGGGAAGTAGAAGCTGGGAAGAGA
binds: all assays above

Source: article PMC9487752, “Novel mycoplasma nucleomodulin MbovP475 decreased cell viability by regulating expression of CRYAB and MCF2L2”
